{"source": "patent US20210395345A1", "assay_in_all_cases": "cell-based or functional assay", "key": {"[1]": {"target": "SARS-CoV-2 spike protein with K444N (SARS-CoV-2) (UniProt P0DTC2)"}, "[2]": {"target": "SARS-CoV-2 spike protein with V445A (SARS-CoV-2) (UniProt P0DTC2)"}, "[3]": {"target": "SARS-CoV-2 spike protein with K444Q (SARS-CoV-2) (UniProt P0DTC2)"}, "[4]": {"target": "SARS-CoV-2 spike protein with N439K (SARS-CoV-2) (UniProt P0DTC2)"}, "[5]": {"target": "SARS-CoV-2 spike protein with K444T (SARS-CoV-2) (UniProt P0DTC2)"}}, "data": [{"substance": "mAb10987 (antibody)", "values": [{"measurement": "reduced susceptibility (fold; neutralization)", "setting": "[1]", "value": "> 755", "unit": "fold"}, {"measurement": "reduced susceptibility (fold; neutralization)", "setting": "[2]", "value": 548, "unit": "fold"}, {"measurement": "reduced susceptibility (fold; neutralization)", "setting": "[3]", "value": "> 548", "unit": "fold"}, {"measurement": "reduced susceptibility (fold; neutralization assays using pseudotyped VSV)", "setting": "[4]", "value": 463, "unit": "fold"}, {"measurement": "reduced susceptibility (fold; neutralization)", "setting": "[5]", "value": "> 1030", "unit": "fold"}]}]}
